Among the data in publication PMC11555115 are percent of parent and response values, retold here.

In assay [1] the target is His-tagged linear tetra-ubiquitin chains (TR-FRET with SHARPIN NZF) (UniProt P0CG48). Kind of assay: TR-FRET assay. Conditions: DMSO; mixed and incubated for 1 h; parent: 100; read off a plot; scale: relative fluorescence intensity.
Assay [2] has as its target Sm-di-ubiquitin (GA mutant) (UniProt P0CG48). As to the kind of experiment: NanoBiT assay in HEK293T cells. Conditions: 1 h, transient transfection, cultured 24 h, read off a plot, scale: relative luminescent intensity.

For GST-tagged SHARPIN NZF T351A; F352A, the percent of parent in assay [1] is 38.

Regarding “Lg-HOIL-1L NZF WT (from UniProt Q9WUB0) TR-AA”, the percent of parent in assay [2] (DMSO, parent: 100) worked out at 52. Moreover, the response in assay [2] (FSL0717 10 μM, parent: est. 60) stood at 37; in assay [2] (FSL0720 10 μM, parent: est. 50), 43.
